In patent US8273705B2, “Conversion of apoptotic proteins” (The Burnham Institute, priority 2002, dated 2012):
Entries after “also recorded” stand apart in the source; their conditions may differ.

Tests used:
Bcl-2 [1] = target: T1, Bcl-2 (Homo sapiens, UniProt P10415); assay: Co-IP assay of TR3 mutants with Bcl-2 in HEK293T cells; assay type: binding; conditions: GFP fusions co-transfected with Bcl-2 in HEK293T cells
T1 construct: expressed in transfected cells; host or cells: HEK293T
Description: TR3/Bcl-2 interaction assays—Reporter gene assays using NurRE-tk-CAT in CV-1 cells, and GST pull-down assay were described previously (Li, et al. 2000 Science 289, 1159-1164). For the mammalian two-hybrid assays, CV-1 cells were co-transfected with pcDNA-Gal4TAD-TR3 or pcDNA-Gal4TAD-TR3/ΔDBD and pcDNA-Gal4DBD-Bcl-2/ΔTM along with a luciferase reporter gene driven by four copies of the Gal4-binding site. The cells were harvested and reporter gene activity was measured. For Co-IP assays, HEK293T cells were transiently transfected with various expression plasmids using a modified calcium phosphate precipitation method (Wu et al, 1997) in the presence of caspase inhibitors (zVAD-fmk) to prevent degradation of TR3 protein due to apoptosis. Cells were suspended in lysis buffer (50 mM Tris-HCl, PH7.4; 150 mM NaCl; 20 mM EDTA; 1% NP-40; 1 mM PMSF; 50 μg/ml Leupeptin; […]; 0.1 mM Na3VO4; and 1 mM DTT). Cells extracts were cleared by incubation with the Protein A/G plus Agarose beads (Santa Cruz) and then incubated with appropriate antibody and 30 μl of Protein A or G plus Agarose beads overnight at 4° C. Beads were then washed and boiled in Laemmli gel-loading solution before performing SDS-PAGE/immunoblotting using the following polyclonal or monoclonal antibodies: monoclonal mouse anti-GFP (Medical and Biological Laboratories), monoclonal mouse anti-HA (Roche Molecular Biochemicals), monoclonal mouse anti-FLAG (Sigma), monoclonal mouse anti-Myc (Santa Cruz), polyclonal rabbit anti-TR3 (Active Motif), or monoclonal mouse anti-Bcl-2 (Santa Cruz). Immunoreactive products were detected by chemiluminescence with an enhanced chemiluminescence system (ECL) (Amersham).
TR3/ΔDBD, which can constitutively reside on mitochondria, was also analyzed by co-immunoprecipitation (Co-IP) assay for its interaction with Bcl-2. GFP-TR3/ΔDBD was transfected into human embryonic kidney cell line 293T alone or together with a Bcl-2 expression vector. The expressed GFP-TR3/ΔDBD mutant protein as then precipitated by using either anti-Bcl-2 antibody or control IgG and detected by western blotting using anti-GFP antibody. The same membranes were also blotted with anti-Bcl-2 antibody to determine precipitation specificity and efficiency. Input represents 10% of total cell extract used in the precipitation assays.
Several TR3 mutants were analyzed to determine the domain of TR3 which interacts with Bcl-2. The TR3 mutants are schematically represented in FIG. 1. A Co-IP assay was performed, as described above. […] Cell extracts were prepared and incubated with anti-Bcl-2 antibody or control IgG for Co-IP assays. Lysates were immunoprecipitated by using either polyclonal rabbit anti-Bcl-2 antibody or control IgG. Cell lysates and immunoprecipitates were examined by immunoblotting using anti-GFP antibody. The same membranes were also blotted with anti-Bcl-2 antibody (Santa Cruz) to determine IP specificity and efficiency. […] This Co-IP was specific because Bcl-2 co-transfection was necessary. […] Thus, the DC1 region in the TR3 LBD is involved in the Bcl-2 interaction.
To further determine the interaction of DC1 with Bcl-2, a region of hydrophobic amino acids ([…]—SEQ ID NO: 1) was deleted from TR3/ΔDBD, and the resulting mutant (TR3/ΔDBD/Δ471-488) was analyzed for its interaction with Bcl-2. TR3/ΔDBD/[…], with eighteen amino acids from 471 to 488 in the DC1 region deleted from TR3/ΔDBD, TR3/ΔDBD/I483A (with Ile483 replaced with Ala) and TR3/ΔDBD/L487A (with Leu487 replaced with Ala) were analyzed for their interaction with Bcl-2 by in vivo Co-IP assay as described above.

LNCaP cells = assay: Colocalization of transfected GFP-TR3/ΔDBD and Bcl-2 in LNCaP cells; assay type: cell-based; conditions: cotransfected with Bcl-2, 20 h
Description: Next, the interaction of transfected TR3 and Bcl-2 was analyzed.

Calu-6 lung cancer cells = assay: Mitochondrial targeting and cytochrome c release in Calu-6 cells; assay type: cell-based
Text: TR3/ΔDBD targets mitochondria in NCI-H460 cells, which express high levels of Bcl-2 (Lu et al. 2001 Cancer Chemother Pharmacol 47:170-178). To determine whether Bcl-2 is involved in mitochondrial targeting of TR3, GFP-TR3/ΔDBD was transfected into Calu-6 lung cancer cells, which express low levels of Bcl-2. GFP-TR3/ΔDBD and Bcl-2 were transfected into Calu-6 lung cancer cells alone or together.

Bcl-2 [2] = target: T1, Bcl-2; assay: Bcl-2 conformation by epitope-specific antibody immunofluorescence (flow cytometry); assay type: cell-based; conditions: HEK293T, co-expressed with Bcl-2, 14 h
Description: Therefore the possibility that a conformational change might be involved in the conversion of Bcl-2 from anti-apoptotic to pro-apoptotic function was explored. To this end, the effects of TR3 on binding of Bcl-2 to various anti-Bcl-2 antibodies recognizing different epitopes were compared. Antibody binding to Bcl-2 was measured by immunofluorescence using flow cytometry (See FIGS. 9a-f) or by immunoprecipitation.
The transfected cells were identified by their green fluorescence by flow cytometric analysis, and the intensity of Bcl-2 immunofluorescence was compared between the GFP-positive and GFP-negative cells. […] This TR3/ΔDBD-induced change in Bcl-2 conformation was also observed in PBLs in addition to HEK293T cells (See FIGS. 9a-f).

T1 sequence (P10415 whole entry, the tested form may be a part): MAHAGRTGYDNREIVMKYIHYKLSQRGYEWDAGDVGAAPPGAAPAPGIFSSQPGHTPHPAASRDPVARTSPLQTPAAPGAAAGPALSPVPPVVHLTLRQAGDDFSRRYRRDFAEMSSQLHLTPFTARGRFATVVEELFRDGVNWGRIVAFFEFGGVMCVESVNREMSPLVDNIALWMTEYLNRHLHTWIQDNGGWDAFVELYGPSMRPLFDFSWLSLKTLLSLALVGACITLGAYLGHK

| Bcl-2 immunofluorescence, antibody against BH3-binding pocket (Bcl-2 [2]) | Bcl-2 immunofluorescence, antibody against Bcl-2 BH3 domain (Bcl-2 [2]) | Molecule | interaction with Bcl-2 (Co-IP) (Bcl-2 [1]) | transfected cells exhibiting colocalization with Bcl-2 (LNCaP cells) | subcellular distribution (Calu-6 lung cancer cells; Calu-6, Bcl-2 co-transfected) | cytochrome c release (Calu-6 lung cancer cells; Calu-6, Bcl-2 cotransfected) | subcellular distribution (Calu-6 lung cancer cells; Calu-6, alone) | Bcl-2 immunofluorescence, antibody against whole Bcl-2 protein (Bcl-2 [2]) |
| --- | --- | --- | --- | --- | --- | --- | --- | --- |
|  |  | TR3/ΔDBD/Δ471-488: TR3/ΔDBD with eighteen amino acids from 471 to 488 in the DC1 region deleted (protein, left off: large carriers; small tags and cut ends, TR3/ΔDBD with eighteen amino acids from 471 to 488 in the DC1 region deleted) MPCIQAQYGTPAPSPGPRDHLASDPLTPEFIKPTMDLASPEAAPAAPTALPSFSTFMDGYTGEFDTFLYQLPGTVQPCSSASSSASSTSSSSATSPASASFKFEDFQVYGCYPGPLSGPVDEALSSSGSDYYGSPCSAPSPSTPSFQPPQLSPWDGSFGHFSPSQTYLVLFSRSLHSLLVDVPAFACLSALVLITDRHGLQEPRRVEELQNRIASCLKEHVAAVAGEPQPASCLSRLLGKLPELRTLCTQGLQRIFYLKLEDLVPPPPIIDKIFMDTLPF | significantly impaired the interaction; also recorded: very weak interaction |  |  |  |  |  |
| reduced | dramatically increased | TR3/ΔDBD: TR3 mutant with the DNA binding domain removed; used as GFP fusion (protein, left off: large carriers; small tags and cut ends, used as GFP fusion) MPCIQAQYGTPAPSPGPRDHLASDPLTPEFIKPTMDLASPEAAPAAPTALPSFSTFMDGYTGEFDTFLYQLPGTVQPCSSASSSASSTSSSSATSPASASFKFEDFQVYGCYPGPLSGPVDEALSSSGSDYYGSPCSAPSPSTPSFQPPQLSPWDGSFGHFSPSQTYLVLHRLQCARGFGDWIDSILAFSRSLHSLLVDVPAFACLSALVLITDRHGLQEPRRVEELQNRIASCLKEHVAAVAGEPQPASCLSRLLGKLPELRTLCTQGLQRIFYLKLEDLVPPPPIIDKIFMDTLPF | co-precipitated with Bcl-2 | Approximately 30% | targeted mitochondria | released from mitochondria | diffusely distributed | did not result in altered Bcl-2 immunofluorescence |
